Measured values: the supplement of paper PMC9876800

Tested on: peptide library, one residue held at a place counted from the S/T acceptor
Test: relative phosphorylation of the sub-library (ratio to the mean residue at this position); higher = residue favoured
Method in brief: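 Relative sub-library phosphorylation is the ratio of each sub-library's signal to the mean residue at that position. The signal came from phosphorimaging of spots on streptavidin membranes, quantified by densitometry, after purified recombinant kinases reacted with biotinylated degenerate peptide sub-libraries in 384-well plates. Reactions held 50 μM peptide and 50 μM ATP spiked with γ-32P-ATP for 90 min under kinase-specific conditions.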

MARK4, construct: Full length, human, sequence (Q96L34 whole entry, looked up): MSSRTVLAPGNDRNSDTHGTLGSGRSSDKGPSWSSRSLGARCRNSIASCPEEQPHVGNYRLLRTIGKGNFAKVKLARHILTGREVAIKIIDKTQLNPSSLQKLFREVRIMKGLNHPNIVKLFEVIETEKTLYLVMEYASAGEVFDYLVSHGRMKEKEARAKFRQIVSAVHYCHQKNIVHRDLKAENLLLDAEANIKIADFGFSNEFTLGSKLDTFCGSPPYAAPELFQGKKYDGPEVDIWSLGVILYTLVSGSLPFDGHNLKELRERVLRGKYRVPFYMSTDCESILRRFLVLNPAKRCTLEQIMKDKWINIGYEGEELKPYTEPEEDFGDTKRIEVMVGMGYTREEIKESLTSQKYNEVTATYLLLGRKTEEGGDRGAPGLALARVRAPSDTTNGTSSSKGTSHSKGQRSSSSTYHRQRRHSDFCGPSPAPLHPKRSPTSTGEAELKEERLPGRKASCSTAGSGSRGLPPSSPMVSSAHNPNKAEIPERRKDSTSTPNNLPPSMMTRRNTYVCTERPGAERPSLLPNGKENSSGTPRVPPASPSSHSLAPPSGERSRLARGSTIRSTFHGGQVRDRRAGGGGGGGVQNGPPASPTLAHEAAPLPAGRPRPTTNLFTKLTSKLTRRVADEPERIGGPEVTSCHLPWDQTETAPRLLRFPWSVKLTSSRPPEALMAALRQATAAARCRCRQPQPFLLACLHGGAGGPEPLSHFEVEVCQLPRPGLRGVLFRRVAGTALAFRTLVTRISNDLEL
WNK4, construct: aa1-444, human, sequence (Q96J92 1-444, looked up): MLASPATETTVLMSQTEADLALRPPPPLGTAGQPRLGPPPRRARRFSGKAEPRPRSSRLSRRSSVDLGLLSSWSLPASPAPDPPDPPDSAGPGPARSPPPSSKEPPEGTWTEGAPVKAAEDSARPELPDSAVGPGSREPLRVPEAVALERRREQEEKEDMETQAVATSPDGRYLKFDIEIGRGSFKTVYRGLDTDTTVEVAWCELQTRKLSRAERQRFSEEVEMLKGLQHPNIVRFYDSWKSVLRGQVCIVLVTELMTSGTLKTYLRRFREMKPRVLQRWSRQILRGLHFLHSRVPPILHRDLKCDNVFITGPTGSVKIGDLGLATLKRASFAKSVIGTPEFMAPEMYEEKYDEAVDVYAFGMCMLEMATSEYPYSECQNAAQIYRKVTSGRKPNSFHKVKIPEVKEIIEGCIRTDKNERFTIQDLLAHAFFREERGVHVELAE

DYRK4, construct: Full length, human (from UniProt Q9NR20)
relative phosphorylation
Details	at +1	at +2	at +3	at +4	at -1	at -2	at -3	at -4	at -5
A fixed	0.514	0.92	0.735	0.738	1.25	2.4	1.05	1.07	0.995
D fixed	0.171	2.1	1.07	1.49	0.773	0.283	0.554	0.801	0.827
E fixed	0.189	1.81	0.985	1.28	0.959	0.27	0.54	0.85	0.807
F fixed	0.166	1.03	0.935	1.27	0.671	0.366	0.464	0.725	1.09
G fixed	0.614	0.629	1.3	1.06	1.28	0.977	1.29	1.13	1.1
H fixed	0.173	1.09	0.909	1.03	0.925	0.493	0.88	0.961	1.11
I fixed	0.268	1.35	0.696	1.09	0.73	0.781	0.491	0.939	0.9
K fixed	0.228	0.317	0.428	0.543	0.87	0.421	0.796	0.857	0.922
L fixed	0.202	1.18	1.42	0.967	0.832	0.871	0.624	0.893	0.825
M fixed	0.21	1.23	1.12	1.19	1.16	0.844	0.647	0.888	0.78
N fixed	0.2	0.738	0.825	0.866	0.847	0.907	0.728	0.719	0.882
P fixed	12	0.629	3.2	0.896	1.71	2.89	1.05	1.3	1.02
Q fixed	0.266	0.783	0.882	0.958	0.962	0.629	0.805	0.916	1.04
R fixed	0.93	0.367	0.554	0.672	1.41	3.18	5.51	2.49	1.98
V fixed	0.578	1.07	0.637	0.87	0.963	1.02	0.478	0.731	0.792
W fixed	0.163	0.909	0.726	1.16	0.595	0.321	0.533	0.875	0.656
Y fixed	0.161	0.843	0.569	0.919	1.06	0.354	0.556	0.863	1.28
pThr fixed	0.375	4.81	0.992	1.93	0.506	0.647	0.592	0.868	0.978
pTyr fixed	0.365	3.13	1.37	2.35	1.04	0.383	0.698	0.896	1.44

MARK4, construct: Full length, human (from UniProt Q96L34)
relative phosphorylation
Details	at +1	at +2	at +3	at +4	at -1	at -2	at -3	at -4	at -5
A fixed	0.923	1	0.855	0.686	1.2	1.82	0.932	1.32	1.32
D fixed	0.605	0.8	1.94	0.629	0.694	0.498	0.552	0.801	0.875
E fixed	0.864	1.08	0.886	0.529	0.582	0.447	0.522	0.844	0.676
F fixed	0.652	0.854	0.919	0.788	0.472	1.08	0.91	0.875	1.03
G fixed	0.706	0.562	0.687	0.611	2.59	1.62	0.951	1.32	1.15
H fixed	0.956	1.01	1.45	0.652	0.868	1.26	1.25	1.11	0.977
I fixed	0.933	0.829	0.653	2.53	0.464	0.599	0.572	0.61	0.818
K fixed	0.83	0.707	0.627	0.517	1.64	0.884	1.65	1.34	1.33
L fixed	1.11	1.14	0.857	4.02	0.668	0.479	0.692	0.726	1.27
M fixed	1.89	0.973	0.879	1.41	0.756	0.62	0.881	1.04	0.969
N fixed	1.17	1.02	2.69	0.601	0.982	0.718	0.695	0.913	0.753
P fixed	0.372	0.785	0.344	0.587	1.37	0.709	1.08	1.1	0.893
Q fixed	1.74	1.11	0.894	0.576	1.3	0.6	0.751	0.775	0.81
R fixed	1.12	0.826	0.592	0.41	1.36	0.97	2.57	1.34	1.2
V fixed	1.29	0.872	0.634	1.27	0.721	0.682	0.634	0.711	0.972
W fixed	0.9	2.44	0.961	0.58	0.581	2.41	1.42	1.17	1.13
Y fixed	0.94	0.991	1.13	0.6	0.758	1.6	0.938	1	0.819
pThr fixed	0.858	0.855	0.4	0.541	0.428	0.577	0.542	0.786	0.706
pTyr fixed	0.58	0.648	0.716	0.471	0.618	0.611	0.636	0.802	0.681

WNK4, construct: aa1-444, human (from UniProt Q96J92)
relative phosphorylation
Details	at +1	at +2	at +3	at +4	at -1	at -2	at -3	at -4	at -5
A fixed	0.658	0.979	0.693	0.885	1.14	1.49	0.929	0.894	0.916
D fixed	0.249	0.57	0.62	0.54	0.287	0.305	0.389	0.579	0.489
E fixed	0.247	0.452	0.518	0.638	0.467	0.305	0.524	0.615	0.565
F fixed	1.13	0.977	2.1	1.3	0.788	0.821	0.748	0.864	1.21
G fixed	0.88	1.12	0.755	0.865	1.18	2.7	1.06	0.973	0.89
H fixed	0.813	0.973	1.35	1.12	1.05	1.54	1.16	1.21	1.21
I fixed	1.2	1.79	0.919	1.24	0.796	0.754	0.947	0.9	1.07
K fixed	0.918	0.872	1.06	1.29	1.66	1.03	1.64	1.6	1.27
L fixed	1.42	1.24	1.02	0.92	0.833	0.637	0.88	0.79	1.14
M fixed	1.96	1.31	1.04	1.1	1.58	0.708	1.02	0.924	0.986
N fixed	0.945	0.664	0.691	0.811	0.636	0.614	0.746	0.867	0.807
P fixed	0.242	0.318	0.514	0.713	0.452	1.31	0.93	0.674	0.628
Q fixed	1.17	0.522	0.565	0.673	0.952	0.573	0.741	0.88	0.639
R fixed	1.87	2.16	1.22	1.42	2.68	1.74	2.66	2.19	1.7
V fixed	0.973	1.16	0.848	0.969	0.812	0.972	0.959	0.877	0.891
W fixed	0.975	0.85	1.63	1.32	0.637	0.662	0.709	1.04	1.25
Y fixed	1.35	1.03	1.46	1.19	1.05	0.828	0.963	1.13	1.33
pThr fixed	0.386	0.407	0.388	0.617	0.444	0.683	0.809	0.732	0.731
pTyr fixed	0.565	0.537	0.612	0.674	0.727	0.471	0.708	0.527	0.764
